Source: PMC11270187 (Antibodies, 2024)

Legend:
HLA-DR on BJAB cells [1] = molecular target: T1, HLA-DR on BJAB cells (Homo sapiens; endogenous HLA-DR of BJAB …); assay: flow cytometry on cells; screen: purified IgGs at 10 µg/mL on HLA-DR-expressing BJAB cells, Fc Block, 1 h at 4 °C, detected with AF488 goat anti-human IgG Fcγ; conditions: one partner purified
T1 construct: HLA-DR α chain, endogenous on BJAB B-lymphoblastoid cells; HLA-DR β chain, endogenous on BJAB B-lymphoblastoid cells; also called HLA-DR-expressing B-lymphoblastoid cell line BJAB; source: endogenous, on BJAB cells

[2] = molecular target: T2, TEV-cleaved recombinant HLA-DR (Homo sapiens, …); assay: BLI; Fabs loaded on FAB2G biosensors; two-fold dilutions of TEV-cleaved HLA-DR from 500 nM; 25 °C; PBS pH 7.4, 0.01% BSA, 0.002% Tween; 1:1 model; conditions: both partners purified
T2 construct: also called TEV-cleaved HLA-DR; source: HEK 293S (GnT I-/-), purified (HisTrap Ni-NTA, SEC), TEV-cleaved; for crystallization also EndoH-treated and purified a second time

HLA-DR on BJAB cells [3] = molecular target: T1, HLA-DR on BJAB cells; assay: flow cytometry on cells; full antibody titration of purified IgGs on HLA-DR-expressing BJAB cells, Fc Block, 1 h at 4 °C, detected with AF488 goat anti-human IgG Fcγ; also after storage of the IgGs at -20, 4 or 40 °C for up to 4 weeks; conditions: one partner purified

Binder	fold improvement of EC50 against V17 (HLA-DR on BJAB cells [3]) [fold]	other results
parental 44H10 IgG (antibody, V domains shown, murine IGHV2-9; Fab part also in PDB 8EUQ; murine IGKV9-124; also in PDB 8EUQ; IgG; also called mAb 44H10; murine mAb 44H10; source: FreeStyle 293-F, transfected, purified (protein A, SEC)) VH: QVQLKESGPGLVAPSQSLSITCTVSGFSLTSYGVHWVRQPPGKGLEWLGVIWAGGSINYNSALMSRLSISKDNFKSQVFLKMSSLQTDDTAMYYCARAYGDYVHYAMDYWGQGTSVTASS VL: DIQMTQSPSSLSASLGQRVSLTCRASQEISGYLTWLQQKPDGTIKRLVYAASTLDSGVPKRFSGSRSGSDYSLTISSLESEDFADYYCLQYTNYPLTFGAGTKLELK	–	binding result (HLA-DR on BJAB cells [1]): binds
 (Fab, V domains shown, as the heavy chain of m11 with the changes below; as the light chain of m11; also called V14-V71K/F78V double mutant; V14-V71K-F78V; source: FreeStyle 293-F, transfected, purified (KappaSelect, MonoS, SEC)) VH: QVQLQESGPGLVKPSETLSLTCTVSGFSLTSYGVHWIRQPPGKGLEWIGVIWAGGSINYNSALMSRVTISKDTSKNQVSLKLSSVTAADTAVYYCARAYGDYVHYAMDYWGQGTLVTVSS VL: DIQMTQSPSSLSASVGDRVTITCRASQEISGYLTWLQQKPGKAPKLLIYAASTLDSGVPSRFSGSGSGTDFTLTISSLQPEDFATYYCLQYTNYPLTFGQGTKLEIK	–	Kd [2]: 206 nM
humanized 44H10 version 22 IgG (antibody, V domains shown, as the heavy chain of m10 (IGHV4-59 with Kabat 44H10 CDRs) with the back-mutations below; as the light chain of m5 (IGKV1-16, printed here as IGHK1-16, with Kabat 44H10 CDRs) with the back-mutations below; IgG with human Fc; also called V22; lead humanized candidate; source: FreeStyle 293-F, transfected, purified (protein A, SEC)) VH: QVQLQESGPGLVKPSETLSLTCTVSGFSLTSYGVHWIRQPPGKGLEWIGVIWAGGSINYNSALMSRVTISKDTSKNQVSLKLSSVTAADTAVYYCARAYGDYVHYAMDYWGQGTLVTVSS VL: DIQMTQSPSSLSASVGDRVTITCRASQEISGYLTWLQQKPGKAPKLLIYAASTLDSGVPKRFSGSRSGTDFTLTISSLQPEDFATYYCLQYTNYPLTFGQGTKLEIK	–	fold reduction in EC50 against parental 44H10 IgG (HLA-DR on BJAB cells [3]): < 2 fold
humanized 44H10 version 20 IgG (V17 with light chain S60K back-mutation) (antibody, V domains shown, as the heavy chain of m5; as the light chain of m5 with the change below; IgG with human Fc; also called V20; source: FreeStyle 293-F, transfected, purified (protein A, SEC)) VH: QVTLKESGPVLVKPTETLTLTCTVSGFSLTSYGVHWIRQPPGKALEWLAVIWAGGSISYSTSLMSRLTISKDTSKSQVVLTMTNMDPVDTATYYCARAYGDYVHYAMDYWGQGTLVTVSS VL: DIQMTQSPSSLSASVGDRVTITCRASQEISGYLTWLQQKPGKAPKLLIYAASTLDSGVPKRFSGSGSGTDFTLTISSLQPEDFATYYCLQYTNYPLTFGQGTKLEIK	~3	–
humanized 44H10 version 19 IgG (V17 with light chain G66R back-mutation) (antibody, V domains shown, as the heavy chain of m5; as the light chain of m5 with the change below; IgG with human Fc; also called V19; source: FreeStyle 293-F, transfected, purified (protein A, SEC)) VH: QVTLKESGPVLVKPTETLTLTCTVSGFSLTSYGVHWIRQPPGKALEWLAVIWAGGSISYSTSLMSRLTISKDTSKSQVVLTMTNMDPVDTATYYCARAYGDYVHYAMDYWGQGTLVTVSS VL: DIQMTQSPSSLSASVGDRVTITCRASQEISGYLTWLQQKPGKAPKLLIYAASTLDSGVPSRFSGSRSGTDFTLTISSLQPEDFATYYCLQYTNYPLTFGQGTKLEIK	~3	–
humanized 44H10 version 21 IgG (V17 with light chain S60K and G66R back-mutations) (antibody, V domains shown, as the heavy chain of m5 (IGHV2-26 with Kabat 44H10 CDRs); as the light chain of m5 with the changes below; IgG with human Fc; also called V21; source: FreeStyle 293-F, transfected, purified (protein A, SEC)) VH: QVTLKESGPVLVKPTETLTLTCTVSGFSLTSYGVHWIRQPPGKALEWLAVIWAGGSISYSTSLMSRLTISKDTSKSQVVLTMTNMDPVDTATYYCARAYGDYVHYAMDYWGQGTLVTVSS VL: DIQMTQSPSSLSASVGDRVTITCRASQEISGYLTWLQQKPGKAPKLLIYAASTLDSGVPKRFSGSRSGTDFTLTISSLQPEDFATYYCLQYTNYPLTFGQGTKLEIK	~3	–
